Data from patent publication US20050026219A1, “Process for label-free measurement of modified substrate” (Boehringer Ingelheim Pharma GmbH & Co. KG, priority 2001, published 2005).
Where “and” joins values, the source holds several entries; their conditions need not be identical. Equal entries are not always repeated.

Assays:
[1] = target: phosphorylated Raytide EL (after reaction with EGF-RK and ATP); assay: RIfS solution competition: Raytide EL 2 ug/50 ul, EGF-RK 0.5 Units/50 ul, ATP; free antibody read on phosphotyrosine-diamino-PEG 2000 sensor; lower value = antibody taken up by phosphorylated substrate
[2] = target: phosphorylated Poly-(Glu, Tyr) 4:1 (after reaction with EGF-RK and ATP); assay: RIfS solution competition: PGT 10 ug/50 ul, EGF-RK 1 Unit/50 ul, ATP, no inhibitor (Tyrphostin 47 series); phosphotyrosine-diamino-PEG 2000 sensor
[3] = target: oligopeptide Ac-Ile-Tyr-Gly-Glu-Phe-NH2 "M-2165" (Messrs. Bachem, MW 668.8); assay: RIfS solution competition: M-2165 10 ug/50 ul, p60c-src-kinase 4 Units/50 ul, no ATP; free antibody read on phosphotyrosine-aminodextrane (AMD) sensor
[4] = target: phosphorylated Poly-(Glu, Tyr) 4:1 (after reaction with EGF-RK and ATP); assay: RIfS solution competition: PGT 10 ug/50 ul, EGF-RK 2 Units/50 ul, ATP; free antibody read on phosphotyrosine-diamino-PEG 2000 sensor; lower value = antibody taken up by phosphorylated substrate
[5] = target: Poly-(Glu, Tyr) 4:1 (MW: 39100, Messrs. Sigma; CAS number 97105-00-5); assay: RIfS solution competition; mean of the two mixtures without ATP of Table 10
[6] = target: Poly-(Glu, Tyr) 4:1 (MW: 39100, Messrs. Sigma; CAS number 97105-00-5); assay: RIfS solution competition: PGT 10 ug/50 ul, EGF-RK 1 Unit/50 ul, no ATP; free antibody read on phosphotyrosine sensor
[7] = target: Poly-(Glu, Tyr) 4:1 (MW: 39100, Messrs. Sigma; CAS number 97105-00-5); assay: RIfS solution competition: PGT 10 ug/50 ul, EGF-RK 2 Units/50 ul, no ATP; free antibody read on phosphotyrosine-diamino-PEG 2000 sensor
[8] = target: Poly-(Glu, Tyr) 4:1 (MW: 39100, Messrs. Sigma; CAS number 97105-00-5); assay: RIfS solution competition: PGT 10 ug/50 ul, EGF-RK 1 Unit/50 ul, no ATP, no inhibitor (control of the staurosporin series); phosphotyrosine-diamino-PEG 2000 sensor
[9] = target: phosphorylated Poly-(Glu, Tyr) 4:1 (after reaction with EGF-RK and ATP); assay: RIfS solution competition: PGT 10 ug/50 ul, EGF-RK 1 Unit/50 ul, ATP, no inhibitor (genistein series); phosphotyrosine-diamino-PEG 2000 sensor
[10] = target: Poly-(Glu, Tyr) 4:1 (MW: 39100, Messrs. Sigma; CAS number 97105-00-5); assay: RIfS solution competition: PGT 10 ug/50 ul, EGF-RK 1 Unit/50 ul, no ATP, no inhibitor (control of the Tyrphostin 47 series); phosphotyrosine-diamino-PEG 2000 sensor
[11] = target: phosphorylated Poly-(Glu, Tyr) 4:1 (after reaction with EGF-RK and ATP); assay: RIfS solution competition: antibody incubated with mixture (PGT 10 ug/50 ul, EGF-RK 0.1 Unit/50 ul, EGF 0.5 ug/50 ul, ATP), free antibody read on phosphotyrosine-diamino-PEG 2000 sensor; lower value = antibody taken up by phosphorylated substrate
[12] = target: phosphorylated Poly-(Glu, Tyr) 4:1 (after reaction with EGF-RK and ATP); assay: RIfS solution competition; mean of the six complete mixtures of Table 10
[13] = target: Poly-(Glu, Tyr) 4:1 (MW: 39100, Messrs. Sigma; CAS number 97105-00-5); assay: RIfS solution competition: antibody incubated with mixture (PGT 10 ug/50 ul, EGF-RK 0.1 Unit/50 ul, EGF 0.5 ug/50 ul, no ATP), free antibody read on phosphotyrosine-diamino-PEG 2000 sensor; high value = antibody not taken up by substrate
[14] = target: phosphorylated Poly-(Glu, Tyr) 4:1 (after reaction with EGF-RK and ATP); assay: RIfS solution competition: PGT 10 ug/50 ul, EGF-RK 1 Unit/50 ul, ATP, no inhibitor (staurosporin series); phosphotyrosine-diamino-PEG 2000 sensor
[15] = target: oligopeptide Ac-Ile-Tyr-Gly-Glu-Phe-NH2 "M-2165" (Messrs. Bachem, MW 668.8); assay: RIfS solution competition: M-2165 10 ug/50 ul, p60c-src-kinase 2 Units/50 ul, no ATP; free antibody read on phosphotyrosine-diamino-PEG 2000 sensor
[16] = target: phosphorylated Poly-(Glu, Tyr) 4:1 (after reaction with EGF-RK and ATP); assay: RIfS solution competition: PGT 10 ug/50 ul, EGF-RK 1 Unit/50 ul, ATP, no inhibitor (erbstatin analogue series); phosphotyrosine-diamino-PEG 2000 sensor
[17] = target: Poly-(Glu, Tyr) 4:1 (MW: 39100, Messrs. Sigma; CAS number 97105-00-5); assay: RIfS solution competition: PGT 10 ug/50 ul, EGF-RK 1 Unit/50 ul, no ATP, no inhibitor (control of the genistein series); phosphotyrosine-diamino-PEG 2000 sensor
[18] = target: Raytide EL (protein-tyrosine-kinase substrate, MW 2476 Dalton, Messrs. Calbiochem); assay: RIfS solution competition: Raytide EL 2 ug/50 ul, EGF-RK 0.5 Units/50 ul, no ATP; free antibody read on phosphotyrosine-diamino-PEG 2000 sensor

monoclonal murine antibody IgG1 from Ascites: Anti-PhosphoTyrosine (Clone number: PT-66, Messrs. Sigma)
Optical layer thickness in nm [1]: 1.83 nm | Optical layer thickness in nm [2]: 0.613 nm | Optical layer thickness in nm [3]: 3.81 nm | Optical layer thickness in nm [4]: 0.225 nm | optical layer thickness in nm (mean value) [5]: 2.16 nm | Optical layer thickness in nm [6]: 2.06 nm and 2.27 nm | Optical layer thickness in nm [7]: 2.65 nm | Optical layer thickness in nm [8]: 2.99 nm | Optical layer thickness in nm [9]: 0.446 nm | Optical layer thickness in nm [10]: 2.3 nm | Optical layer thickness in nm [11]: 2.04 nm | optical layer thickness in nm (mean value) [12]: 0.19 nm | Optical layer thickness in nm [13]: 2.59 nm | Optical layer thickness in nm [14]: 0.233 nm | Optical layer thickness in nm [15]: 3.2 nm | Optical layer thickness in nm [16]: 0.852 nm | Optical layer thickness in nm [17]: 2.4 nm | Optical layer thickness in nm [18]: 3.11 nm
